The target in test [1] is human complement C5 (human). Briefly: competition, ECL.
Test [2] deals with T1, human serum albumin (human, UniProt P02768). The test can be described thus: SPR.
Test [3] addresses human complement C5 (human). The test can be described thus: SPR, without albumin.
Test [4] has as its target human complement C5 (human). Briefly: SPR, with human albumin.
In test [5] the target is human complement C5 (human). Briefly: SPR.
The target of a further test is bovine serum albumin (bovine, UniProt P02769). The test can be described thus: SPR.
Chain of bovine serum albumin (P02769 25-607): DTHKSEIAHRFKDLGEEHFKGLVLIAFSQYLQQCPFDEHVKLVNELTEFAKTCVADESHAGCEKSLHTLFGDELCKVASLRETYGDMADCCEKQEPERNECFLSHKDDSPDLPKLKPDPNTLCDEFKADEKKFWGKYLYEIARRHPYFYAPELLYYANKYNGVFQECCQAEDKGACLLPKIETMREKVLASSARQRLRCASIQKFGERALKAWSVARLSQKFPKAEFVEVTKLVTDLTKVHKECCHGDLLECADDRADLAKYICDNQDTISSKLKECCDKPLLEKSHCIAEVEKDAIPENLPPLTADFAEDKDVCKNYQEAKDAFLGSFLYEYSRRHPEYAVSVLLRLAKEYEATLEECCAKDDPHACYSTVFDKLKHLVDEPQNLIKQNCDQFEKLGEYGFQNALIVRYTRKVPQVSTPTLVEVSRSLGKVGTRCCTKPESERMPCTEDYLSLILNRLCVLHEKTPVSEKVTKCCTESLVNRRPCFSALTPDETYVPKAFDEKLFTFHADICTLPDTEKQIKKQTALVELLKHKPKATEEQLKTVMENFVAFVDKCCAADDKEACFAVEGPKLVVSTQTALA
For the next test, the target named is T2, rat serum albumin (rat, UniProt P02770).
T2 chain: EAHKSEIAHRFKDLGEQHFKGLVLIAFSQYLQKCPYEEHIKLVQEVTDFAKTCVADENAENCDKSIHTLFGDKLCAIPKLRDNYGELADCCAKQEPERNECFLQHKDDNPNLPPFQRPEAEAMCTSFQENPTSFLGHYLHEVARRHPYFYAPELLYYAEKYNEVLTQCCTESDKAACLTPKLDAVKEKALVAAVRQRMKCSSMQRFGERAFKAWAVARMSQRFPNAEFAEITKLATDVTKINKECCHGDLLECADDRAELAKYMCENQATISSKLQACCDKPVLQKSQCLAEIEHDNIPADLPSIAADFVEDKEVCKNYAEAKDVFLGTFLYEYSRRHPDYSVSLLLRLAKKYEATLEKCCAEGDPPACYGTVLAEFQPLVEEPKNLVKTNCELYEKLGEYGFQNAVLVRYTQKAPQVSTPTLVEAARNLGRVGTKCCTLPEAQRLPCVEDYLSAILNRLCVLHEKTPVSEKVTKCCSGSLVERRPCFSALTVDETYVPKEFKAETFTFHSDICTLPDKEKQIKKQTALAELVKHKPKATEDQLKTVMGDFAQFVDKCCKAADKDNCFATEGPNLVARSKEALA
Briefly: SPR.

The next test has as its target mouse serum albumin (mouse, UniProt P07724). Briefly: SPR.
The target in test [6] is T1, human serum albumin. Briefly: SPR, 25C.
For a further test, the target named is T3, human complement C4 (human).
T3 chain 1: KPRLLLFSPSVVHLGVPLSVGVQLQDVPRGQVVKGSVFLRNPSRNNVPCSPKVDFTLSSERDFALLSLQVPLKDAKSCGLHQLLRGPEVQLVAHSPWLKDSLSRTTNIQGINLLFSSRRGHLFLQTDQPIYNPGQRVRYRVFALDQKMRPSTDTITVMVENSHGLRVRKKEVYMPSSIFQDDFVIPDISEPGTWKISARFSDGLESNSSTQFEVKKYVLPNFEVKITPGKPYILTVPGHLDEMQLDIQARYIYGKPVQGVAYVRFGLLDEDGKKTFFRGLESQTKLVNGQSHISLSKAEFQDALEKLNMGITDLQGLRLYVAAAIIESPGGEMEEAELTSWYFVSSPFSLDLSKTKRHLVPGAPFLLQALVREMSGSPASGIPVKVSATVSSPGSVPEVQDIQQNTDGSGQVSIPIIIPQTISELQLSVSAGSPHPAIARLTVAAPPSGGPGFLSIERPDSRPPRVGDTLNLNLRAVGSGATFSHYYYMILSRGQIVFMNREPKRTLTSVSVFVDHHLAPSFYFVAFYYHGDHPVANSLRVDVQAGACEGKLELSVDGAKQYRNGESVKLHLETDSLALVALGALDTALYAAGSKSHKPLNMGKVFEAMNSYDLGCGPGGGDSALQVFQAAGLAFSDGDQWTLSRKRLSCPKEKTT
T3 chain 2: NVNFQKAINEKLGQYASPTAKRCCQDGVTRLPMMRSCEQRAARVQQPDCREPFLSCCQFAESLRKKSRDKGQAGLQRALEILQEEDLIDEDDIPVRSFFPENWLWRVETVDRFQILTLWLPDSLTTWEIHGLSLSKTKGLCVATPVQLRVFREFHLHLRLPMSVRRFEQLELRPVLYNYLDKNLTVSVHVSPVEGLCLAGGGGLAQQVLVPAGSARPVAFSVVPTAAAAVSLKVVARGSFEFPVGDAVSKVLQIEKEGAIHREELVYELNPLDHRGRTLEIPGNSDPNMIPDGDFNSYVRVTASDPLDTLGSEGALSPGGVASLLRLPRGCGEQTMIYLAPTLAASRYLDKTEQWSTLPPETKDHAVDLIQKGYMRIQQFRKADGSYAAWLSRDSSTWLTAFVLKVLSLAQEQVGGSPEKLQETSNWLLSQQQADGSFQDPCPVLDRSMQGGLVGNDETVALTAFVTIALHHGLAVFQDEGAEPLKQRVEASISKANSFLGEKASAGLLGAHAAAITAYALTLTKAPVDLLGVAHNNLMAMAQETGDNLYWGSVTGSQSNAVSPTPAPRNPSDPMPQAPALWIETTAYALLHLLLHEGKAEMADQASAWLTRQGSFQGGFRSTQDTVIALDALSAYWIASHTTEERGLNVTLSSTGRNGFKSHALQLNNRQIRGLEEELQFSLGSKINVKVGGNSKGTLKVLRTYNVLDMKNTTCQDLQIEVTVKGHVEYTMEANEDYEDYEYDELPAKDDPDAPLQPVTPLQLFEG
T3 chain 3: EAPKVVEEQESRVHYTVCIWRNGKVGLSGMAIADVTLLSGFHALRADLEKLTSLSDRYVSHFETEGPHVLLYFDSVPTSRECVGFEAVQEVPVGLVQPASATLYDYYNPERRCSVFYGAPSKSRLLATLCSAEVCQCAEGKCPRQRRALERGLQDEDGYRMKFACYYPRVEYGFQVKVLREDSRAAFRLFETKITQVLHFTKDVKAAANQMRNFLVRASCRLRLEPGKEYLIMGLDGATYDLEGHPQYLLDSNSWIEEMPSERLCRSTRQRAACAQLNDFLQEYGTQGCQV
The test can be described thus: SPR, 40 and 400 nM.

The next test concerns the target human complement C3 (human, UniProt P01024). Briefly: SPR, 40 and 400 nM.
Test [7] concerns the target human complement C5 (human). The test can be described thus: other, ECL saturation binding.

Chain of mouse serum albumin (P07724 25-608): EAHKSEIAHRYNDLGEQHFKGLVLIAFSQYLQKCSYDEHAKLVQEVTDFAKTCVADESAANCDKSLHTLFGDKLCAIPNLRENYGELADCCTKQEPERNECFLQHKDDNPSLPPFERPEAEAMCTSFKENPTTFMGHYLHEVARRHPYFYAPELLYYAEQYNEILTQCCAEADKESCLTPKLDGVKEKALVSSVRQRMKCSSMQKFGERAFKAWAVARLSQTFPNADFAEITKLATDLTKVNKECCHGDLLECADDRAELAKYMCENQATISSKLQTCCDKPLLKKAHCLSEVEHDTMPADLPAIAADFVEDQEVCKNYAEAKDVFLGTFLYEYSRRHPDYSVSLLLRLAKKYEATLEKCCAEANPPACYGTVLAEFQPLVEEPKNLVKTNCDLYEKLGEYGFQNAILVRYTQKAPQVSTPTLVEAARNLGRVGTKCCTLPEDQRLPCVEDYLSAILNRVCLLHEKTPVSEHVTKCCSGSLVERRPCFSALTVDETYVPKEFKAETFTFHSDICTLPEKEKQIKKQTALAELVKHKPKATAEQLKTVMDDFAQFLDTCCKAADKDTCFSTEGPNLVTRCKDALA

B1: OmCI (protein)
chain: MDSESDCTGSEPVDAFQAFSEGKEAYVLVRSTDPKARDCLKGEPAGEKQDNTLPVMMTFKNGTDWASTDWTFTLDGAKVTATLGNLTQNREVVYDSQSHHCHVDKVEKEVPDYEMWMLDAGGLEVEVECCRQKLEELASGRNQMYPHLKDCGGGGSENLYFQGSHHHHHH
As for B1, the IC50 with human complement C5 [1] stood at 1.5 nM.

B2: Z06175a-GS-ABD094-GS(G4S)2-Z06175a (designed binder)
chain 1: not shown
chain 2: LAEAKEAANAELDSYGVSDFYKRLIDKAKTVEGVEALKDAILAALP
chain 3: not shown
Turning to B2, the Kd with human serum albumin [2] was greater than 1 nM; with human complement C5 [3], 0.662 nM; in the test with human complement C5 [4] it was 0.586 nM.

B3: Z(757)-GS-ABD094 (designed binder)
chain 1: not shown
chain 2: LAEAKEAANAELDSYGVSDFYKRLIDKAKTVEGVEALKDAILAALP
With B3, the dissociation constant Kd in the test with human complement C5 [5] turned out to be 2.34 nM.

B4: Z06175a-Z06175a-GS(G4S)2-ABD094 (designed binder)
chain 1: not shown
chain 2: not shown
chain 3: LAEAKEAANAELDSYGVSDFYKRLIDKAKTVEGVEALKDAILAALP
As for B4, the Kd amounted to 1.38 nM with human complement C5 [3] and 1.13 nM in the test with human complement C5 [4].

B5: Z06175a-Z06175a-GS-ABD094 (designed binder)
chain 1: not shown
chain 2: not shown
chain 3: LAEAKEAANAELDSYGVSDFYKRLIDKAKTVEGVEALKDAILAALP
With B5, the Kd in the test with human complement C5 [3] worked out at 0.63 nM; in the test with human complement C5 [4] it was 0.776 nM.

B6: Z(751)-GS-ABD094 (designed binder)
chain 1: not shown
chain 2: LAEAKEAANAELDSYGVSDFYKRLIDKAKTVEGVEALKDAILAALP
In the test with human complement C5 [5], B6 yielded an equilibrium dissociation constant (Kd) of 1.87 nM.

B7: Z06175a-GS(G4S)2-ABD094 (designed binder)
chain 1: not shown
chain 2: LAEAKEAANAELDSYGVSDFYKRLIDKAKTVEGVEALKDAILAALP
In the case of B7, the Kd in the test with human complement C5 [3] is 3.75 nM.

B8: Z(750)-GS-ABD094 (designed binder)
chain 1: not shown
chain 2: LAEAKEAANAELDSYGVSDFYKRLIDKAKTVEGVEALKDAILAALP
As for B8, the equilibrium dissociation constant (Kd) with human complement C5 [5] was determined as 1.75 nM.

B9: ABD094-Z06175a (N-terminal ABD) (designed binder)
chain 1: LAEAKEAANAELDSYGVSDFYKRLIDKAKTVEGVEALKDAILAALP
chain 2: not shown
On to B9, for which the IC50 with human complement C5 [1] stood at 17 nM.

B10: Z(756)-GS-ABD094 (designed binder)
chain 1: not shown
chain 2: LAEAKEAANAELDSYGVSDFYKRLIDKAKTVEGVEALKDAILAALP
Turning to B10, the Kd in the test with human complement C5 [5] amounted to 2.01 nM.

B11: Z05477a-GS-ABD094 (designed binder)
chain 1: not shown
chain 2: LAEAKEAANAELDSYGVSDFYKRLIDKAKTVEGVEALKDAILAALP
As for B11, the IC50 with human complement C5 [1] was roughly 30 nM.

B12: Z06175a-GS-ABD094 (designed binder)
chain 1: not shown
chain 2: LAEAKEAANAELDSYGVSDFYKRLIDKAKTVEGVEALKDAILAALP
For the molecule B12, in the test with bovine serum albumin, the binding result is “no binding”. Further, the Kd with rat serum albumin is less than 0.1 nM; with mouse serum albumin, roughly 4 nM; in the test with human complement C5 [5], 1.18 nM; with human serum albumin [6], less than 1 nM; with human complement C5 [3], 1.43 nM; with human complement C5 [4], 1.43 nM.

B13: Z(755)-GS-ABD094 (designed binder)
chain 1: not shown
chain 2: LAEAKEAANAELDSYGVSDFYKRLIDKAKTVEGVEALKDAILAALP
For B13, the Kd with human complement C5 [5] worked out at 3.05 nM.

B14: Z(749)-GS-ABD094 (designed binder)
chain 1: not shown
chain 2: LAEAKEAANAELDSYGVSDFYKRLIDKAKTVEGVEALKDAILAALP
For the molecule B14, the Kd with human complement C5 [5] was determined as 1.83 nM.

B15: Z(752)-GS-ABD094 (designed binder)
chain 1: not shown
chain 2: LAEAKEAANAELDSYGVSDFYKRLIDKAKTVEGVEALKDAILAALP
Consider B15, for which, in the test with human complement C5 [5], the Kd came to 2.58 nM.

B16: Z(748)-GS-ABD094 (Z06009a) (designed binder)
chain 1: not shown
chain 2: LAEAKEAANAELDSYGVSDFYKRLIDKAKTVEGVEALKDAILAALP
Turning to B16, the Kd with human complement C5 [5] stood at 1.31 nM. Besides, the binding result in the test with human complement C4 and with human complement C3 was “no binding” in each case.

B17: Z(754)-GS-ABD094 (designed binder)
chain 1: not shown
chain 2: LAEAKEAANAELDSYGVSDFYKRLIDKAKTVEGVEALKDAILAALP
Take B17: the Kd with human complement C5 [5] was found to be 2.28 nM.

B18: SULFO-TAG Z(748)-GS-ABD094 (designed binder)
chain 1: not shown
chain 2: LAEAKEAANAELDSYGVSDFYKRLIDKAKTVEGVEALKDAILAALP
The molecule B18 returned an equilibrium dissociation constant (Kd) with human complement C5 [7] of 0.9 nM.

These data come from patent US10206975 (dated 2019).
